Laboratory results: US20180273642A1 (EMERGENT PRODUCT DEVELOPMENT SEATTLE, published 2018)

Key:
CD28 on CD4+ T cells = biological target: T1, CD28 on CD4+ T cells (human, UniProt P10747 19-220); test: binding to CD4+ T cells (FIG. 3; method not described)
T1 construct: whole, on cells

CD19 on cells = biological target: T2, CD19 on cells (UniProt P15391 20-556, limits assumed); test: flow cytometry on Rec1 (CD19+, CD20+) cells, 100 nM to 0.1 nM, goat anti-human IgG-FITC
T2 construct: whole, on cells
T2 sequence (looked up): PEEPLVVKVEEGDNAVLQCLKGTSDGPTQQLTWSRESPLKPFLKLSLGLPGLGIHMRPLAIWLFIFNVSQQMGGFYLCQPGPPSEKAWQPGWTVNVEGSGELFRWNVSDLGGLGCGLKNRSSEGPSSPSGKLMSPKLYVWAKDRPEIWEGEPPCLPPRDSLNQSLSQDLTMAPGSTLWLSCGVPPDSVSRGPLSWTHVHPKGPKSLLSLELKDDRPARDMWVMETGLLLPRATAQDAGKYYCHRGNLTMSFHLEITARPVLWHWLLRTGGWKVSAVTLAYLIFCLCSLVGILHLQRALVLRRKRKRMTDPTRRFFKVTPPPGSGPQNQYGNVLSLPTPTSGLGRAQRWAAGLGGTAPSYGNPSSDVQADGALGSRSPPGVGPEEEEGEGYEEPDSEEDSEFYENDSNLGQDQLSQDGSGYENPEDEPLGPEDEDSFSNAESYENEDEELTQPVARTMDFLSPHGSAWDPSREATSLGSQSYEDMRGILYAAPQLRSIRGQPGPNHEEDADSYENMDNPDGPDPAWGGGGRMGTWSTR
Description: (§1) T-cells were isolated from donor PBMCs using a Pan T-cell Isolation Kit II from Miltenyi Biotec (Bergisch Gladbach, Germany). Non T-cells were separated from PBMCs by being indirectly magnetically labeled with biotin-conjugated monoclonal antibodies and anti-biotin magnetic microbeads. These cells were then depleted by retaining them in a column surrounded by a magnetic field. The T-cells were not retained in the column and were collected in the flow through.
(§2) The cells were washed three times and then incubated with goat anti-human IgG-FITC (1:200 dilution) for another 30 minutes at 4° C. The cells were then washed again three times, fixed in 1% paraformaldehyde and read on a FACS-Calibur instrument.

CD20 on cells = biological target: T3, CD20 on cells (UniProt P11836 1-297, limits assumed); test: as above
T3 construct: whole, on cells
T3 sequence (looked up): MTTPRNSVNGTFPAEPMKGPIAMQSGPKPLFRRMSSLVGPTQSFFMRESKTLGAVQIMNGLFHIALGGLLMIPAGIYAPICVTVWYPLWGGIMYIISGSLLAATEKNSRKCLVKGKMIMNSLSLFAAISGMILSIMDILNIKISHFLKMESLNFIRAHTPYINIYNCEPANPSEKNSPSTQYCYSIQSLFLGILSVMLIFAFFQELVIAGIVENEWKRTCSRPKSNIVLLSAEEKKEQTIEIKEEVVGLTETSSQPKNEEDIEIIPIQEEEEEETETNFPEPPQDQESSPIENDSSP
Description: as §1, §2

B1: bivalent anti-CD28 polypeptide heterodimer X0172 (Fc fusion)
chain 1: QVQLKESGPGSVAPSQSLSITCTVSGFSLTGYGVNWVRQPPGKGLEWLGMIWGDGSTDYNSALKSRLSITKDNSKSQVFLKMNSLQTDDTARYYCARDGYSNFHYYVMDYWGQGTSVTVSSGGGGSGGGGSGGGGSGGGGSDIVLTQSPASLAVSLGQRATISCRASESVEYYVTSLMQWYQQKPGQPPKLLISAASNVESGVPARFSGSGSGTDFSLNIHPVEEDDIAMYFCQQSRKVPWTFGGGTKLEIKSSSASTKGPSVFPLAPSSKSTSGGTAALGCLVKDYFPEPVTVSWNSGALTSGVHTFPAVLQSSGLYSLSSVVTVPSSSLGTQTYICNVNHKPSNTKVDKKVRTEPKSSDKTHTCPPCPSGAPELLGGPSVFLFPPKPKDTLMISRTPEVTCVVVDVSHEDPEVKFNWYVDGVEVHNAKTKPREEQYNSTYRVVSVLTVLHQDWLNGKEYKCKVSNKALPAPIEKTISKAKGQPREPQVYTLPPSRDELTKNQVSLTCLVKGFYPSDIAVEWESNGQPENNYKTTPPVLDSDGSFFLYSKLTVDKSRWQQGNVFSCSVMHEALHNHYTQKSLSLSPGKSRTVAAPSVFIFPPSDEQLKSGTASVVCLLNNFYPREAKVQWKVDNALQSGNSQESVTEQDSKDSTYSLSSTLTLSKADYEKHKVYACEVTHQGLSSPVTKSFNRGE
chain 2: TVAAPSVFIFPPSDEQLKSGTASVVCLLNNFYPREAKVQWKVDNALQSGNSQESVTEQDSKDSTYSLSSTLTLSKADYEKHKVYACEVTHQGLSSPVTKSFNRGERTEPKSSDKTHTCPPCPSGAPELLGGPSVFLFPPKPKDTLMISRTPEVTCVVVDVSHEDPEVKFNWYVDGVEVHNAKTKPREEQYNSTYRVVSVLTVLHQDWLNGKEYKCKVSNKALPAPIEKTISKAKGQPREPQVYTLPPSRDELTKNQVSLTCLVKGFYPSDIAVEWESNGQPENNYKTTPPVLDSDGSFFLYSKLTVDKSRWQQGNVFSCSVMHEALHNHYTQKSLSLSPGKSRASTKGPSVFPLAPSSKSTSGGTAALGCLVKDYFPEPVTVSWNSGALTSGVHTFPAVLQSSGLYSLSSVVTVPSSSLGTQTYICNVNHKPSNTKVDKKVNSLFNQEVQIPLTESYSPNSQVQLKESGPGSVAPSQSLSITCTVSGFSLTGYGVNWVRQPPGKGLEWLGMIWGDGSTDYNSALKSRLSITKDNSKSQVFLKMNSLQTDDTARYYCARDGYSNFHYYVMDYWGQGTSVTVSSGGGGSGGGGSGGGGSGGGGSDIVLTQSPASLAVSLGQRATISCRASESVEYYVTSLMQWYQQKPGQPPKLLISAASNVESGVPARFSGSGSGTDFSLNIHPVEEDDIAMYFCQQSRKVPWTFGGGTKLEIK
notes: also called X0130 + X0168
binding result (CD28 on CD4+ T cells): binds

B2: 2E12 (anti-CD28) scFv (scFv)
scFv: QVQLKESGPGSVAPSQSLSITCTVSGFSLTGYGVNWVRQPPGKGLEWLGMIWGDGSTDYNSALKSRLSITKDNSKSQVFLKMNSLQTDDTARYYCARDGYSNFHYYVMDYWGQGTSVTVSSGGGGSGGGGSGGGGSGGGGSDIVLTQSPASLAVSLGQRATISCRASESVEYYVTSLMQWYQQKPGQPPKLLISAASNVESGVPARFSGSGSGTDFSLNIHPVEEDDIAMYFCQQSRKVPWTFGGGTKLEIK
notes: also called 2E12 scFv
binding result (CD28 on CD4+ T cells): binds

B3: bispecific polypeptide heterodimer TSC020 (anti-CD19 and anti-CD3) (bispecific antibody)
chain 1: DIVLTQSPASLAVSLGQRATISCKASQSVDYDGDSYLNWYQQIPGQPPKLLIYDASNLVSGIPPRFSGSGSGTDFTLNIHPVEKVDAATYHCQQSTEDPWTFGGGTKLEIKGGGGSGGGGSGGGGASQVQLQQSGAELVRPGSSVKISCKASGYAFSSYWMNWVKQRPGQGLEWIGQIWPGDGDTNYNGKFKGKATLTADESSSTAYMQLSSLASEDSAVYFCARRETTTVGRYYYAMDYWGQGTSVTVSSSEPKSSDKTHTCPPCPSGAPELLGGPSVFLFPPKPKDTLMISRTPEVTCVVVDVSHEDPEVKFNWYVDGVEVHNAKTKPREEQYNSTYRVVSVLTVLHQDWLNGKEYKCKVSNKALPAPIEKTISKAKGQPREPQVYTLPPSRDELTKNQVSLTCLVKGFYPSDIAVEWESNGQPENNYKTTPPVLDSDGSFFLYSKLTVDKSRWQQGNVFSCSVMHEALHNHYTQKSLSLSPGKSRASTKGPSVFPLAPSSKSTSGGTAALGCLVKDYFPEPVTVSWNSGALTSGVHTFPAVLQSSGLYSLSSVVTVPSSSLGTQTYICNVNHKPSNTKVDKKV
chain 2: EVQLQQSGPELVKPGASMKISCKASGYSFTGYIVNWLKQSHGKNLEWIGLINPYKGLTTYNQKFKGKATLTVDKSSSTAYMELLSLTSEDSAVYYCARSGYYGDSDWYFDVWGAGTTVTVSSGGGGSGGGGSGGGGSAQDIQMTQTTSSLSASLGDRVTISCRASQDIRNYLNWYQQKPDGTVKLLIYYTSRLHSGVPSRFSGSGSGTDYSLTIANLQPEDIATYFCQQGNTLPWTFGGGTKLVTKRSSEPKSSDKTHTCPPCPSGAPELLGGPSVFLFPPKPKDTLMISRTPEVTCVVVDVSHEDPEVKFNWYVDGVEVHNAKTKPREEQYNSTYRVVSVLTVLHQDWLNGKEYKCKVSNKALPAPIEKTISKAKGQPREPQVYTLPPSRDELTKNQVSLTCLVKGFYPSDIAVEWESNGQPENNYKTTPPVLDSDGSFFLYSKLTVDKSRWQQGNVFSCSVMHEALHNHYTQKSLSLSPGKSRTVAAPSVFIFPPSDEQLKSGTASVVCLLNYFYPREAKVQWKVDNALQSGNSQESATEQDSKDSTYSLSSELTLSKADYEKHKVYACEVTHQGLSSPVTKSFNRGE
notes: HD37 (anti-CD19) scFv and G19-4 (anti-CD3) scFv; also called CD19×αCD3; TSC001 + TSC019
binding result (CD19 on cells): binds

B4: bispecific (CD20, CD3) polypeptide heterodimer TSC021 (bispecific antibody)
chain 1: QIVLSQSPAILSASPGEKVTMTCRASSSVSYMHWYQQKPGSSPKPWIYAPSNLASGVPARFSGSGSGTSYSLTISRVEAEDAATYYCQQWSFNPPTFGAGTKLELKDGGGSGGGGSGGGGASQAYLQQSGAESVRPGASVKMSCKASGYTFTSYNMHWVKQTPRQGLEWIGAIYPGNGDTSYNQKFKGKATLTVDKSSSTAYMQLSSLTSEDSAVYFCARVVYYSNSYWYFDVWGTGTTVTVSSSEPKSSDKTHTCPPCPSGAPELLGGPSVFLFPPKPKDTLMISRTPEVTCVVVDVSHEDPEVKFNWYVDGVEVHNAKTKPREEQYNSTYRVVSVLTVLHQDWLNGKEYKCKVSNKALPAPIEKTISKAKGQPREPQVYTLPPSRDELTKNQVSLTCLVKGFYPSDIAVEWESNGQPENNYKTTPPVLDSDGSFFLYSKLTVDKSRWQQGNVFSCSVMHEALHNHYTQKSLSLSPGKSRASTKGPSVFPLAPSSKSTSGGTAALGCLVKDYFPEPVTVSWNSGALTSGVHTFPAVLQSSGLYSLSSVVTVPSSSLGTQTYICNVNHKPSNTKVDKKV
chain 2: B3 chain 2
notes: 2H7 (anti-CD20) scFv and G19-4 (anti-CD3) scFv; also called αCD20×αCD3; TSC002 + TSC019
binding result (CD20 on cells): binds

B5: monovalent anti-CD28 polypeptide heterodimer X0124 (Fc fusion)
chain 1: QVQLKESGPGSVAPSQSLSITCTVSGFSLTGYGVNWVRQPPGKGLEWLGMIWGDGSTDYNSALKSRLSITKDNSKSQVFLKMNSLQTDDTARYYCARDGYSNFHYYVMDYWGQGTSVTVSSGGGGSGGGGSGGGGSGGGGSDIVLTQSPASLAVSLGQRATISCRASESVEYYVTSLMQWYQQKPGQPPKLLISAASNVESGVPARFSGSGSGTDFSLNIHPVEEDDIAMYFCQQSRKVPWTFGGGTKLEIKSSSASTKGPSVFPLAPSSKSTSGGTAALGCLVKDYFPEPVTVSWNSGALTSGVHTFPAVLQSSGLYSLSSVVTVPSSSLGTQTYICNVNHKPSNTKVDKKVRTEPKSSDKTHTCPPCPSGAPELLGGPSVFLFPPKPKDTLMISRTPEVTCVVVDVSHEDPEVKFNWYVDGVEVHNAKTKPREEQYNSTYRVVSVLTVLHQDWLNGKEYKCKVSNKALPAPIEKTISKAKGQPREPQVYTLPPSRDELTKNQVSLTCLVKGFYPSDIAVEWESNGQPENNYKTTPPVLDSDGSFFLYSKLTVDKSRWQQGNVFSCSVMHEALHNHYTQKSLSLSPGK
chain 2: TVAAPSVFIFPPSDEQLKSGTASVVCLLNNFYPREAKVQWKVDNALQSGNSQESVTEQDSKDSTYSLSSTLTLSKADYEKHKVYACEVTHQGLSSPVTKSFNRGERTEPKSSDKTHTCPPCPSGAPELLGGPSVFLFPPKPKDTLMISRTPEVTCVVVDVSHEDPEVKFNWYVDGVEVHNAKTKPREEQYNSTYRVVSVLTVLHQDWLNGKEYKCKVSNKALPAPIEKTISKAKGQPREPQVYTLPPSRDELTKNQVSLTCLVKGFYPSDIAVEWESNGQPENNYKTTPPVLDSDGSFFLYSKLTVDKSRWQQGNVFSCSVMHEALHNHYTQKSLSLSPGK
notes: One 2E12 (anti-CD28) scFv only; also called X0112 + X0113
binding result (CD28 on CD4+ T cells): binds
